The test has as its target IL-1 receptor (type I) on T24 cells (UniProt P14778). Description: cell-based or functional assay.
Chain of UniProt P14778 (P14778 18-569 limits assumed): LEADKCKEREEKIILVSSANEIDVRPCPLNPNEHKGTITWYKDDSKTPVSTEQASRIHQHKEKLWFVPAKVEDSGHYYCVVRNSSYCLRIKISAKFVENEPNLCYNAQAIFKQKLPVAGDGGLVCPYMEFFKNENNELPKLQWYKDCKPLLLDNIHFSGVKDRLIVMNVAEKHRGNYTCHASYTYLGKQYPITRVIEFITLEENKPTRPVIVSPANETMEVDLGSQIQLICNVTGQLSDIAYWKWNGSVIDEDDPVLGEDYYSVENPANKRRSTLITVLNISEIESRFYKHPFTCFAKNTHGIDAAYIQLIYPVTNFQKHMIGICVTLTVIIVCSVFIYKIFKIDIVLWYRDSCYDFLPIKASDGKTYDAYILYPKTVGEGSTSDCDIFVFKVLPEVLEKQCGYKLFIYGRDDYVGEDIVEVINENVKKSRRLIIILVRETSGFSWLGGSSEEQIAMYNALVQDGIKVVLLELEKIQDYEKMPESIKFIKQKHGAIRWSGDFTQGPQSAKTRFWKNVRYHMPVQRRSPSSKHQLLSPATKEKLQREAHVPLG

The substance “His-tagged IL-1Ra wild type (without signal peptide) from E. coli (from UniProt P18510 26-177) (ligand)” gave an inhibition of IL-1β-induced secretion of IL-8 from T24 cells, at 200 µg/ml of 70%; an inhibition of IL-1β-induced secretion of IL-8 from T24 cells, at 600 µg/ml of 50%; an inhibition of IL-1β-induced secretion of IL-8 from T24 cells, at 1800 µg/ml of 100%; an inhibition of IL-1β-induced secretion of IL-8 from T24 cells, at 8000 µg/ml of 100%.
Turning to “commercial IL-1Ra WT (obtained from Prospec Tany TechnoGene Ltd (Rehovot Israel)) (from UniProt P18510 26-177) (ligand)”, the inhibition of IL-1β-induced secretion of IL-8 from T24 cells, at 200 µg/ml is above 70% and the inhibition of IL-1β-induced secretion of IL-8 from T24 cells, at 600 µg/ml or above came out at 100%.

The values above are taken from patent publication US20050159590A1.
